PMC9352680, “A comprehensive thermodynamic model for RNA binding by the Saccharomyces cerevisiae Pumilio protein PUF4”
Numbering of substitutions follows the chain as printed. Names may count otherwise.

B1: Id_ii_S1_P3E.2_K3.1_C3.2_[C-2T]_H3.1_A3.1_F3.1_T3.2_[T9A]_[A10C] (ssRNA)
RNA: UCUCUUUUUGUAUAUAACUCUCUU
B2: Id_ii_S1_P3E.2_K3.1_C3.2_[C-2T]_H3.1_A3.1_F3.1_T3.2_[A10C] (ssRNA)
RNA: UCUCUUUUUGUAUAUAUCUCUCUU
B3: Id_ii_S1_P3E.2_K3.1_C3.2_[C-2T]_[T-1G]_H3.1_A3.1_F3.1_T3.2_[A10C] (ssRNA)
RNA: UCUCUUUGUGUAUAUAUCUCUCUU
B4: Id_ii_S1_P3E.2_K3.1_C3.2_[C-2G]_[T-1C]_H3.1_A3.1_F3.1_T3.2_[T9C]_[A10C] (ssRNA)
RNA: UCUCUUGCUGUAUAUACCUCUCUU
B5: Ib_S1_P4E.1_K4.1_C4.1_H4.1_[T1A]_[A4G]_A4.1_F4.1_T4.1 (ssRNA)
RNA: UCUCUUAGUGUAUUAUCUCUU
B6: Id_ii_S1_P3E.2_K3.1_C3.2_[C-2G]_[T-1C]_H3.1_A3.1_F3.1_T3.2_[A10T] (ssRNA)
RNA: UCUCUUGCUGUAUAUAUUUCUCUU
B7: Id_ii_S1_P3E.2_K3.1_C3.2_[C-2T]_H3.1_A3.1_F3.1_T3.2_[T9G]_[A10G] (ssRNA)
RNA: UCUCUUUUUGUAUAUAGGUCUCUU
B8: Id_ii_S1_P3E.2_K3.1_C3.2_[C-2T]_[T-1C]_H3.1_A3.1_F3.1_T3.2_[T9A]_[A10T] (ssRNA)
RNA: UCUCUUUCUGUAUAUAAUUCUCUU
B9: Id_ii_S1_P3E.2_K3.1_C3.2_[C-2G]_[T-1C]_H3.1_A3.1_F3.1_T3.2_[T9C]_[A10T] (ssRNA)
RNA: UCUCUUGCUGUAUAUACUUCUCUU
B10: Id_ii_S1_P3E.2_K3.1_C3.2_[C-2T]_[T-1A]_H3.1_A3.1_F3.1_T3.2_[A10C] (ssRNA)
RNA: UCUCUUUAUGUAUAUAUCUCUCUU
B11: Id_ii_S1_P3E.2_K3.1_C3.2_[C-2T]_[T-1C]_H3.1_A3.1_F3.1_T3.2_[T9G]_[A10T] (ssRNA)
RNA: UCUCUUUCUGUAUAUAGUUCUCUU
B12: Id_ii_S1_P3E.2_K3.1_C3.2_[C-2T]_[T-1A]_H3.1_A3.1_F3.1_T3.2_[A10G] (ssRNA)
RNA: UCUCUUUAUGUAUAUAUGUCUCUU
B13: Id_ii_S1_P3E.2_K3.1_C3.2_[C-2G]_[T-1G]_H3.1_A3.1_F3.1_T3.2_[A10G] (ssRNA)
RNA: UCUCUUGGUGUAUAUAUGUCUCUU
B14: Id_i_S4_P3E.7_K3.3_C3.3_[T-3A]_[C-2T]_[T-1A]_H3.3_A3.1_F3.1_T3.2 (ssRNA)
RNA: UUUGACAACUGAUCGUUCUUUCUAUAACACUAUAUAUUCUUUCUCGAUCAGUUGUCUUU
B15: Id_i_S4_P3E.7_K3.3_C3.3_[T-3A]_[C-2A]_[T-1A]_H3.3_A3.1_F3.1_T3.2 (ssRNA)
RNA: B14 RNA with U25A
B16: Ib_S1_P4E.1_K4.1_C4.1_H4.1_[G2C]_[A4G]_A4.1_F4.1_T4.1 (ssRNA)
RNA: UCUCUUUCUGUAUUAUCUCUU
B17: Id_ii_S1_P3E.2_K3.1_C3.2_[C-2G]_H3.1_A3.1_F3.1_T3.2_[T9A]_[A10T] (ssRNA)
RNA: UCUCUUGUUGUAUAUAAUUCUCUU
B18: Id_ii_S1_P3E.2_K3.1_C3.2_[C-2G]_[T-1G]_H3.1_A3.1_F3.1_T3.2_[T9A]_[A10T] (ssRNA)
RNA: UCUCUUGGUGUAUAUAAUUCUCUU
B19: Id_ii_S1_P3E.2_K3.1_C3.2_[C-2G]_H3.1_A3.1_F3.1_T3.2_[A10G] (ssRNA)
RNA: UCUCUUGUUGUAUAUAUGUCUCUU
B20: Id_ii_S1_P3E.2_K3.1_C3.2_[C-2G]_[T-1C]_H3.1_A3.1_F3.1_T3.2_[A10C] (ssRNA)
RNA: UCUCUUGCUGUAUAUAUCUCUCUU
B21: Id_ii_S1_P3E.2_K3.1_C3.2_[C-2T]_[T-1C]_H3.1_A3.1_F3.1_T3.2_[T9C]_[A10G] (ssRNA)
RNA: UCUCUUUCUGUAUAUACGUCUCUU
B22: Id_ii_S1_P3E.2_K3.1_C3.2_[C-2T]_H3.1_A3.1_F3.1_T3.2_[T9A]_[A10T] (ssRNA)
RNA: UCUCUUUUUGUAUAUAAUUCUCUU
B23: Id_ii_S1_P3E.2_K3.1_C3.2_[C-2T]_[T-1C]_H3.1_A3.1_F3.1_T3.2_[T9G]_[A10C] (ssRNA)
RNA: UCUCUUUCUGUAUAUAGCUCUCUU
B24: Id_ii_S1_P3E.2_K3.1_C3.2_[C-2T]_[T-1G]_H3.1_A3.1_F3.1_T3.2_[T9C]_[A10C] (ssRNA)
RNA: UCUCUUUGUGUAUAUACCUCUCUU
B25: Id_ii_S1_P3E.2_K3.1_C3.2_[C-2G]_H3.1_A3.1_F3.1_T3.2_[T9A] (ssRNA)
RNA: UCUCUUGUUGUAUAUAAAUCUCUU
B26: Id_ii_S1_P3E.2_K3.1_C3.2_[C-2G]_[T-1C]_H3.1_A3.1_F3.1_T3.2_[A10G] (ssRNA)
RNA: UCUCUUGCUGUAUAUAUGUCUCUU
B27: Id_ii_S1_P3E.2_K3.1_C3.2_[C-2T]_H3.1_A3.1_F3.1_T3.2_[T9G]_[A10C] (ssRNA)
RNA: UCUCUUUUUGUAUAUAGCUCUCUU
B28: Id_ii_S1_P3E.2_K3.1_C3.2_[C-2T]_[T-1G]_H3.1_A3.1_F3.1_T3.2_[A10T] (ssRNA)
RNA: UCUCUUUGUGUAUAUAUUUCUCUU
B29: Id_ii_S1_P3E.2_K3.1_C3.2_[C-2T]_H3.1_A3.1_F3.1_T3.2_[T9C]_[A10C] (ssRNA)
RNA: UCUCUUUUUGUAUAUACCUCUCUU
B30: Id_ii_S1_P3E.2_K3.1_C3.2_[C-2T]_[T-1C]_H3.1_A3.1_F3.1_T3.2_[T9A] (ssRNA)
RNA: UCUCUUUCUGUAUAUAAAUCUCUU
B31: Id_ii_S1_P3E.2_K3.1_C3.2_[C-2T]_H3.1_A3.1_F3.1_T3.2_[T9A]_[A10G] (ssRNA)
RNA: UCUCUUUUUGUAUAUAAGUCUCUU
B32: Id_ii_S1_P3E.2_K3.1_C3.2_[C-2G]_[T-1C]_H3.1_A3.1_F3.1_T3.2_[T9A]_[A10C] (ssRNA)
RNA: UCUCUUGCUGUAUAUAACUCUCUU

What follows are binders tested against T1, PUF4 RNA-binding domain (Saccharomyces cerevisiae, UniProt P25339 537-888) (assay: Mg; RNA-MaP; 20 mM Na-HEPES pH 7.4, 30 mM KOAc, 0.75 mM MgCl2, 0.1% Tween-20, 5% glycerol, 0.1 mg/mL BSA, 2 mM DTT; 25 C; 0.0125-409.6 nM protein). Settings: tags: N-His6-TEV cleaved; C-SNAP kept, Cy3B-labelled; label: tethered on chip by stalled RNA polymerase.
T1 sequence: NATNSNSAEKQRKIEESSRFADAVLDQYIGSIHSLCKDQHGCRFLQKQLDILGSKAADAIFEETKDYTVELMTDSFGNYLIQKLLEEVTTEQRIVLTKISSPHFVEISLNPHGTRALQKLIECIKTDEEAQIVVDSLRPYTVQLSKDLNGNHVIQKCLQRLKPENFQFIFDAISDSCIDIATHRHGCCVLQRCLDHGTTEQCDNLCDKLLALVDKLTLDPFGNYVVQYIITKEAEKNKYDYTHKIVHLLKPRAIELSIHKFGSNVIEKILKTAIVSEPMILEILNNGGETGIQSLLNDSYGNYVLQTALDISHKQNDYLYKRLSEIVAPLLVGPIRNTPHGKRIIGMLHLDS

Binder	Kd [nM]
B1	9.6
B2	7.26
B3	7.14
B4	17.3
B5	64
B6	12.9
B7	10.7
B8	4.37
B9	31.8
B10	9.65
B11	3.7
B12	9.53
B13	16.4
B14	571
B15	451
B16	25.1

Binder	Kd [nM]
B17	9.55
B18	16.3
B19	8.99
B20	12.6
B21	17.9
B22	8.27
B23	3.8
B24	23.4
B25	8.84
B26	12.4
B27	5.32
B28	8.9
B29	12.1
B30	8.49
B31	11.6
B32	18.8
